Our source for the IC50 values is paper PMC3420232, “The Transmembrane Domains of TNF-Related Apoptosis-Inducing Ligand (TRAIL) Receptors 1 and 2 Co-Regulate Apoptotic Signaling Capacity” (PLoS ONE, 2012).

This test addresses T1, wild-type human TRAILR2 (human, UniProt O14763 56-440).
T1 construct: TRAIL receptor 2 (TRAILR2, DR5), human, wild type; the printed numbers (transmembrane region ending at 231, GIIIG at 212-216, stalk of about 34 aa) fit the long form; also called DR5; TRICK2; source: immortalized mouse fibroblasts (MF), stably transfected, on cells
Briefly: radioligand binding; competition on cells: 4x10^5 murine fibroblasts expressing the (chimeric) TRAIL receptor in PFA (PBS, 2% FCS, 0.002% sodium azide), 83 ng/ml 125I-TRAIL with or without unlabeled recombinant human TRAIL (83-5300 ng/ml), 4 hours on ice; cells spun through phthalate oil; 68 kDa used for TRAIL. Particulars: one partner purified.

B1: Flag-tagged recombinant human TRAIL (sTRAIL), unlabeled (ligand, UniProt P50591 95-281, looked up)
chain: TSEETISTVQEKQQNISPLVRERGPQRVAAHITGTRGRSNTLSSPNSKNEKALGRKINSWESSRSGHSFLSNLHLRNGELVIHEKGFYYIYSQTYFRFQEEIKENTKNDKQMVQYIYKYTSYPDPILLMKSARNSCWSKDAEYGLYSIYQGGIFELKENDRIFVSVTNEHLIDMDHEASFFGAFLVG
notes: TRAIL (TNF-related apoptosis-inducing ligand), human, soluble recombinant form (sTRAIL); no removal of the tag is told; also called FLAG-TRAIL; non-labeled TRAIL; source: bought: Axxora (Lörrach, Germany)
For orientation: IC50 means the concentration needed to halve the response being measured. As for B1, the IC50 was found to be 3.5 nM.
